Assay results taken from doi:10.1101/2025.08.04.25332941.

Tests used:
[1] = target: HLA-A*24 with C-terminal His tag (A*24-His Tg) (human); test: SPR
[2] = target: HLA-A*33 with C-terminal His tag (A*33-His Tg) (human); test: SPR

## Toxoplasma antigenic peptide SAG2C, wild type
[1]
  SPR response at 200 µM: 15 RU
[2]
  SPR response at 200 µM: 150 RU
